Assay results from patent US20260132207A1 (ACCELERON PHARMA, published 2026).

Experiments:
dimeric hActRIIA [1] = target: T1, dimeric hActRIIA (human, UniProt P27037 20-135); assay: SPR (Biacore), 37 C, antibody captured on anti-hFc IgG chip, dimeric ActRIIA injected
T1 construct: also called ActRIIA DIMER; ActRIIA dimer
Procedure: (§1) Kinetic characterization of J01, K01, L01, M01, N01, and P01 antibodies binding to monomeric and dimeric hActRIIB and hActRIIA was performed using standard BIACORE®-based analysis at 37° C. In brief, antibodies were captured on anti-hFclgG Biacore chips and different concentrations of dimeric and monomeric ActRIIB or ActRIIA were injected in duplicates over the captured antibody and control surface. To obtain kinetic rate constants the data were double referenced and fit to a 1:1 interaction model using BiaEvaluation software (GE Healthcare). The equilibrium binding constant KD was determined by the ratio of binding rate constants kd/kₐ

dimeric hActRIIB [2] = target: T2, dimeric hActRIIB (human, UniProt Q13705 19-134); assay: SPR (Biacore), 37 C, antibody captured on anti-hFc IgG chip, dimeric ActRIIB injected, 1:1 model
T2 construct: also called ActRIIB DIMER; ActRIIB dimer
T2 sequence (Q13705 19-134): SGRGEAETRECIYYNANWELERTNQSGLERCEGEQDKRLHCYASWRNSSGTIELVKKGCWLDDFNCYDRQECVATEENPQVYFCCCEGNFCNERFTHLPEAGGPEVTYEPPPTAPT
Procedure: as §1

dimeric hActRIIB [3] = target: T2, dimeric hActRIIB; assay: SPR (Biacore), 37 C, antibody captured on anti-hFc IgG chip, dimeric ActRIIB injected, KD = kd/ka
Procedure: as §1

monomeric hActRIIB [4] = target: T3, monomeric hActRIIB (human, UniProt Q13705 19-134, limits assumed); assay: SPR (Biacore), 37 C, antibody captured on anti-hFc IgG chip, monomeric ActRIIB injected, 1:1 model
T3 construct: also called ActRIIB MONOMER; ActRIIB monomer
T3 sequence (Q13705 19-134 limits assumed): as the sequence (Q13705 19-134) above
Procedure: as §1

monomeric hActRIIB [5] = target: T3, monomeric hActRIIB; assay: SPR (Biacore), 37 C, antibody captured on anti-hFc IgG chip, monomeric ActRIIB injected, KD = kd/ka
Procedure: as §1

dimeric hActRIIA [6] = target: T1, dimeric hActRIIA; assay: SPR (Biacore), 37 C, antibody captured on anti-hFc IgG chip, dimeric ActRIIA injected, 1:1 model
Procedure: as §1

dimeric hActRIIA [7] = target: T1, dimeric hActRIIA; assay: SPR (Biacore), 37 C, antibody captured on anti-hFc IgG chip, dimeric ActRIIA injected, KD = kd/ka
Procedure: as §1

monomeric hActRIIA [8] = target: T4, monomeric hActRIIA (human, UniProt P27037 20-135, limits assumed); assay: SPR (Biacore), 37 C, antibody captured on anti-hFc IgG chip, monomeric ActRIIA injected, 1:1 model
T4 construct: also called ActRIIA MONOMER; ActRIIA monomer
T4 sequence (P27037 20-135 limits assumed): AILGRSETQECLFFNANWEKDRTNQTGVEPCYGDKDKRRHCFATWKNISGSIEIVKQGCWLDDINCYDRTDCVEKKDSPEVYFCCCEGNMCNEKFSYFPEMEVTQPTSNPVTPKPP
Procedure: as §1

monomeric hActRIIA [9] = target: T4, monomeric hActRIIA; assay: SPR (Biacore), 37 C, antibody captured on anti-hFc IgG chip, monomeric ActRIIA injected, KD = kd/ka
Procedure: as §1

T1 sequence (P27037 20-135): as the sequence (P27037 20-135 limits assumed) above

Row | binding result (dimeric hActRIIA [1]) | koff (dimeric hActRIIB [2]) | kon (dimeric hActRIIB [2]) | Kd (dimeric hActRIIB [3]) | koff (monomeric hActRIIB [4]) | kon (monomeric hActRIIB [4]) | Kd (monomeric hActRIIB [5]) | koff (dimeric hActRIIA [6]) | kon (dimeric hActRIIA [6]) | Kd (dimeric hActRIIA [7]) | koff (monomeric hActRIIA [8]) | kon (monomeric hActRIIA [8]) | Kd (monomeric hActRIIA [9]) | Binder
1 | no binding | 3.24e-05 s⁻¹ | 304000 M⁻¹ s⁻¹ | 0.107 nM | 8.72e-05 s⁻¹ | 1.16e+06 M⁻¹ s⁻¹ | 0.0755 nM | – | – | – | – | – | – | M01 (antibody, V domains shown, Optimized human IgG; It was captured through its Fc on an anti-hFc IgG chip; also called M01 antibody; mAB M01) VH: EVQLLESGGGLVQPGGSLRLSCAASGFTFGSYGMTWVRQAPGKGLEWVSVISGSGGGTYYADSVKGRFTISRDNSKNTLYLQMNSLRAEDTAVYYCAKGPRVVGMDVWGQGTTVTVSS VL: DIQMTQSPSSVSASVGDRVTITCRASQGISSWLAWYQQKPGKAPKLLIYAASSLQSGVPSRFSGSGSGTDYTLTISSLQPEDFATYYCQQVFSYPLTFGGGTKVEIK
2 | no binding | 0.0145 s⁻¹ | 388000 M⁻¹ s⁻¹ | 37.4 nM | – | – | – | – | – | – | – | – | – | P01 (antibody, V domains shown, Naive human IgG; also called P01 antibody; mAB P01) VH: EVQLLESGGGLVQPGGSLRLSCAASGFTFSSYAMSWVRQAPGKGLEWVSAISGSGGSTSYADSVKGRFTISRDNSKNTLYLQMNSLRAEDTAVYYCARLPQYSRPFDYWGQGTLVTVSS VL: DIQMTQSPSSVSASVGDRVTITCRASQGISSWLAWYQQKPGKAPKLLIYAASSLQSGVPSRFSGSGSGTDFTLTISSLQPEDFATYYCQQGHSFPLTFGGGTKVEIK
3 | – | 1.69e-05 s⁻¹ | 452000 M⁻¹ s⁻¹ | 0.0374 nM | 0.00022 s⁻¹ | 1.05e+06 M⁻¹ s⁻¹ | 0.209 nM | 9.31e-05 s⁻¹ | 484000 M⁻¹ s⁻¹ | 0.192 nM | 0.00259 s⁻¹ | 828000 M⁻¹ s⁻¹ | 3.13 nM | J01 (antibody, V domains shown, also called J01 antibody; mAB J01) VH: QVQLVQSGAEVKKPGASVKVSCKASGYTFTSYRMHWVRQAPGQGLEWMGFIVPSGGSTSYAQKFQGRVTMTRDTSTSTVYMELSSLRSEDTAVYYCARVSRYAPEPMDVWGQGTTVTVSS VL: DIQMTQSPSSVSASVGDRVTITCRASQGISRWLAWYQQKPGKAPKLLIYAASSLQSGVPSRFSGSGSGTDFTLTISSLQPEDFATYYCQQAFSHPWTFGGGTKVEIK
4 | no binding | 0.000683 s⁻¹ | 104000 M⁻¹ s⁻¹ | 6.57 nM | 0.00237 s⁻¹ | 148000 M⁻¹ s⁻¹ | 16 nM | – | – | – | – | – | – | K01 (antibody, human IgG1, kappa, V domains shown, Naive human IgG from a yeast library; It was captured on an anti-hFc IgG chip in the SPR assay; also called K01 antibody; mAB K01) VH: QLQLQESGPGLVKPSETLSLTCTVSGGSISSSSYYWGWIRQPPGKGLEWIGSISYSGSTYYNPSLKSRVTISVDTSKNQFSLKLSSVTAADTAVYYCARDSLRYGMDVWGQGTTVTVSS VL: not shown
5 | no binding | 0.000335 s⁻¹ | 182000 M⁻¹ s⁻¹ | 1.84 nM | 0.00769 s⁻¹ | 416000 M⁻¹ s⁻¹ | 18.5 nM | – | – | – | – | – | – | N01 (antibody, human IgG1, kappa, V domains shown, also called N01 antibody; mAB N01) VH: QLQLQESGPGLVKPSETLSLTCTVSGGSISSSSYYWGWIRQPPGKGLEWIGSISYSGSTYYNPSLKSRVTISVDTSKNQFSLKLSSVTAADTAVYYCARDSLRYGMDVWGQGTTVTVSS VL: DIQMTQSPSTLSASVGDRVTITCRASQSIGSWLAWYQQKPGKAPKLLIYKASSLESGVPSRFSGSGSGTEFTLTISSLQPDDFATYYCQVYGSYSPRTFGGGTKVEIKR
6 | no binding | 0.000365 s⁻¹ | 212000 M⁻¹ s⁻¹ | 1.72 nM | 0.0179 s⁻¹ | 921000 M⁻¹ s⁻¹ | 19.5 nM | – | – | – | – | – | – | L01 (antibody, human IgG1, kappa, V domains shown, Naive human IgG; also called L01 antibody; mAB L01) VH: QLQLQESGPGLVKPSETLSLTCTVSGGSISSSSYYWGWIRQPPGKGLEWIGSISYSGSTYYNPSLKSRVTISVDTSKNQFSLKLSSVTAADTAVYYCARDSLRYGMDVWGQGTTVTVSS VL: EIVMTQSPATLSVSPGERATLSCRASQSVSSNLAWYQQKPGQAPRLLIYGASTRATGIPARFSGSGSGTEFTLTISSLQSEDFAVYYCQVYNVWPRTFGGGTKVEIKR
